Assay results as given in publication doi:10.1101/2020.10.29.360719, “Phase separation of the LINE-1 ORF1 protein is mediated by the N-terminus and coiled-coil domain” (bioRxiv, 2020).
Values belong to the binder of their own block, whether it stands above or below them.

Assays:
[1] = biological target: the molecule itself; test: SEC; gel filtration, GE HiPrep 16/60 Sephacryl S-300 HR, 20 mM Tris pH 8.0, 1 M NaCl, 1 mM DTT; self-association (trimer)
[2] = biological target: T1, ORF1_(53-152) (coiled-coil domain of ORF1) (human, UniProt Q9UN81 53-152); test: NMR titration; 15N-1H HSQC and 15N relaxation of the 15N-enriched N-terminal construct with non-labeled coiled-coil construct added (equimolar, 700 uM each in Fig. 3C); 25 °C; 20 mM HEPES pH 7.25 or 20 mM MES pH 6.0, 200 mM NaCl, 1 mM DTT; conditions: both partners purified
T1 construct: Non-labeled in the NMR experiments; also called full-length coiled-coil domain; trimeric coiled-coil domain; source: E. coli BL21STAR(DE3), purified (Ni-NTA, Sephacryl S-300 gel filtration)
T1 sequence (looked up): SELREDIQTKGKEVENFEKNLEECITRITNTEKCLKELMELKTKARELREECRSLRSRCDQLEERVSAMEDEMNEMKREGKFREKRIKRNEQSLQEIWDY

B1: full-length ORF1_(1-338) protein (LINE-1 ORF1 protein) (natural protein, human, UniProt Q9UN81 1-338, looked up)
chain: MGKKQNRKTGNSKTQSASPPPKERSSSPATEQSWMENDFDELREEGFRRSNYSELREDIQTKGKEVENFEKNLEECITRITNTEKCLKELMELKTKARELREECRSLRSRCDQLEERVSAMEDEMNEMKREGKFREKRIKRNEQSLQEIWDYVKRPNLRLIGVPESDVENGTKLENTLQDIIQENFPNLARQANVQIQEIQRTPQRYSSRRATPRHIIVRFTKVEMKEKMLRAAREKGRVTLKGKPIRLTADLSAETLQARREWGPIFNILKEKNFQPRISYPAKLSFISEGEIKYFIDKQMLRDFVTTRPALKELLKEALNMERNNRYQPLQNHAKM
notes: LINE-1 (L1) ORF1 protein, human, residues 1-338, 40 kDa; No tag removal is described; The histidine tag is only named in the legends for ORF1_(1-53); also called L1 ORF1 protein; wild-type ORF1; source: E. coli BL21STAR(DE3), purified (Ni-NTA, Sephacryl S-300 gel filtration)
- stoichiometry N [1]: 3

- binding result [2]: binds
B2: ORF1_(1-53) (disordered N-terminal region of ORF1) (domain or fragment, human, UniProt Q9UN81 1-53, looked up)
chain: MGKKQNRKTGNSKTQSASPPPKERSSSPATEQSWMENDFDELREEGFRRSNYS
notes: LINE-1 ORF1 protein, human, residues 1-53; 15N (and for assignment 13C) isotope enriched for NMR; also called N-terminus; N-terminal region (1-53); source: E. coli BL21STAR(DE3), purified (Ni-NTA, heat 70°C, gel filtration); not shown: histidine tag, C-terminal, kept

B3: ORF1_(1-141) (domain or fragment, human, UniProt Q9UN81 1-141, looked up)
chain: MGKKQNRKTGNSKTQSASPPPKERSSSPATEQSWMENDFDELREEGFRRSNYSELREDIQTKGKEVENFEKNLEECITRITNTEKCLKELMELKTKARELREECRSLRSRCDQLEERVSAMEDEMNEMKREGKFREKRIKR
notes: LINE-1 ORF1 protein, human, residues 1-141 (N-terminus and coiled-coil domain lacking the C-terminal 12 residues); source: E. coli BL21STAR(DE3), purified (Ni-NTA, gel filtration)
- stoichiometry N [1]: 3

B4: ORF1_(1-131) (domain or fragment, human, UniProt Q9UN81 1-131, looked up)
chain: MGKKQNRKTGNSKTQSASPPPKERSSSPATEQSWMENDFDELREEGFRRSNYSELREDIQTKGKEVENFEKNLEECITRITNTEKCLKELMELKTKARELREECRSLRSRCDQLEERVSAMEDEMNEMKRE
notes: LINE-1 ORF1 protein, human, residues 1-131 (N-terminus and coiled-coil domain lacking the C-terminal 22 residues); source: E. coli BL21STAR(DE3), purified (Ni-NTA, gel filtration)
- stoichiometry N [1]: 3

- binding result [2]: binds
B5: ORF1_(1-46) (domain or fragment, human, UniProt Q9UN81 1-46, looked up)
chain: MGKKQNRKTGNSKTQSASPPPKERSSSPATEQSWMENDFDELREEG
notes: LINE-1 ORF1 protein, human, residues 1-46; Observed by 15N-1H HSQC, so isotope enriched; also called truncated ORF1_(1-46) construct; source: E. coli BL21STAR(DE3), purified (Ni-NTA, gel filtration)
